The values below come from paper PMC549393.

The data set has as its target T1, TBP (TATA-binding protein);Brf1;Bdp1 (yeast?;yeast?;yeast?, UniProt P13393;P29056;P46678 1-240;1-596;1-594, ||).
T1 sequence 1: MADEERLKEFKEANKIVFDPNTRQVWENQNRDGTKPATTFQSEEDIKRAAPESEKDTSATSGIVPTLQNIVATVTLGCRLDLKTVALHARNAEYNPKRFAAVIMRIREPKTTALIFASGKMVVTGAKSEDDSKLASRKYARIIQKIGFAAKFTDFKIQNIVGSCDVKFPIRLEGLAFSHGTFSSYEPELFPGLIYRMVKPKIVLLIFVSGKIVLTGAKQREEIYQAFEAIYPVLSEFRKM
T1 sequence 2: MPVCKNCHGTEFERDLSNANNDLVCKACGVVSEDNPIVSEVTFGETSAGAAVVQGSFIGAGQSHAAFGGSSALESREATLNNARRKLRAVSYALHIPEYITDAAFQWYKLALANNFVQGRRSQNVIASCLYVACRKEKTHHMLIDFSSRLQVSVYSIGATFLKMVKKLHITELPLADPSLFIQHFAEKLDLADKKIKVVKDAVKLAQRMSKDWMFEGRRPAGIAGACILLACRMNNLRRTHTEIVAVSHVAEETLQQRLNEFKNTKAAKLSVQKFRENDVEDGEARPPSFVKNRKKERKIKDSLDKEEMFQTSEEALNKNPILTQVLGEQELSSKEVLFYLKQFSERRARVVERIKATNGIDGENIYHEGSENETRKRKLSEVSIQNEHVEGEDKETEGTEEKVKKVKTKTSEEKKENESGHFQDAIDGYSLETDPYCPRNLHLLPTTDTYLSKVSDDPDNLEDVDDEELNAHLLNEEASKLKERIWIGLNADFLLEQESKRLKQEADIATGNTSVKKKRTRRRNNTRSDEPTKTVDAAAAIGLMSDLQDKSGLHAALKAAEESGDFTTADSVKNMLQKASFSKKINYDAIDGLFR
T1 sequence 3: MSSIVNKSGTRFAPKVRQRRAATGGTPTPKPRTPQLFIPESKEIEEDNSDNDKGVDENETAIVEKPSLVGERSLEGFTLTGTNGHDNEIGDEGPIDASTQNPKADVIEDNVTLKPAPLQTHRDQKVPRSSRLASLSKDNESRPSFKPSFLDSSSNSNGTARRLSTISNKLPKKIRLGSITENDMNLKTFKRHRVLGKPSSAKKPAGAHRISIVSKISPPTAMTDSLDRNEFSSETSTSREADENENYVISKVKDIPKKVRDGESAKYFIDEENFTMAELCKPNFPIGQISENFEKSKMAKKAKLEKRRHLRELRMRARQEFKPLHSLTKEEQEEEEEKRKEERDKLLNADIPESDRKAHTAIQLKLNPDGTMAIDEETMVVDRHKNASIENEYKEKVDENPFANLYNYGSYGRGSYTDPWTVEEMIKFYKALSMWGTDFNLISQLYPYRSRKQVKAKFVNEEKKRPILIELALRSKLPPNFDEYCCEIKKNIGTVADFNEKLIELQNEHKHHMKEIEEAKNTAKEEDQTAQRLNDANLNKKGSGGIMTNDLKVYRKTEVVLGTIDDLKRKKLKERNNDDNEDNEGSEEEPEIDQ
Briefly: EMSA. On the technique in general: Mobility shift assays separate free from complexed probe on a gel.

B1: U6 (SNR6) TATA-DNA, 30 bp (dsDNA)
DNA 1: TTTTCGGCTACTATAAATAAATGTTTTTTT
DNA 2: AAAAAAACATTTATTTATAGTAGCCGAAAA
In the case of B1, the binding result was “binds”.
